Source: IntAct's records for PubMed 11591686

B1: RNA polymerase sigma factor RpoD (Pseudomonas aeruginosa (strain ATCC 15692 / PAO1 / 1C / PRS 101 / LMG 12228)), P26480 (parent)
chain: MSGKAQQQSRLKELIARGREQGYLTYAEVNDHLPEDISDPEQVEDIIRMINDMGINVFETAPDADALLLAEADTDEAAAEEAAAALAAVESDIGRTTDPVRMYMREMGTVELLTREGEIEIAKRIEEGIREVMSAIAQFPGTVDSILADYNRIVAEGGRLSDVLSGYIDPDDGSLPAEEVEPVNLKDDSADSKEKDDEEEESDDSSDSDDEGDGGPDPEEARLRFTAVSEQLDKAKKALKKHGRGSKQATAELTGLAELFMPIKLVPKQFDALVARVRSALEGVRAQERAIMQLCVRDARMPRADFLRLFPNHETDEKWVDSVLKSKPKYAEAIERLRDDILRNQQKLAALESEVELTVAEIKEINRAMSIGEAKARRAKKEMVEANLRLVISIAKKYTNRGLQFLDLIQEGNIGLMKAVDKFEYRRGYKFSTYATWWIRQAITRSIADQARTIRIPVHMIETINKLNRISRQMLQEMGREPTPEELGERMDMPEDKIRKVLKIAKEPISMETPIGDDEDSHLGDFIEDSTMQSPIEMATSESLKESTREVLAGLTAREAKVLRMRFGIDMNTDHTLEEVGKQFDVTRERIRQIEAKALRKLRHPSRSEHLRSFLDE
partner: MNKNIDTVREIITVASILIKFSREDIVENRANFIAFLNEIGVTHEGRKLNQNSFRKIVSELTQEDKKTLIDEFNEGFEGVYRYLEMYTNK
B2: RNA polymerase sigma factor RpoD (Pseudomonas aeruginosa (strain ATCC 15692 / PAO1 / 1C / PRS 101 / LMG 12228)), P26480 (parent)
chain: B1 chain
partner: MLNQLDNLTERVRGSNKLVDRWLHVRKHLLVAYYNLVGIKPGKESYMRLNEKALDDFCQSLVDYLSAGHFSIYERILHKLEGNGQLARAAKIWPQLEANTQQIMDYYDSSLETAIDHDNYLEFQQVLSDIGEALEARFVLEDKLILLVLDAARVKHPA
B3: RNA polymerase sigma factor RpoD (Pseudomonas aeruginosa (strain ATCC 15692 / PAO1 / 1C / PRS 101 / LMG 12228)), P26480 (parent)
chain: B1 chain
partner: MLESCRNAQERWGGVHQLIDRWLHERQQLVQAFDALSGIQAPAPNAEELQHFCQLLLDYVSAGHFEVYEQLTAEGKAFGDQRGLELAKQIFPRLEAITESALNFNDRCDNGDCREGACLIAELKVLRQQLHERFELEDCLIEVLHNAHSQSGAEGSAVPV

Variants of: B1
Details: with asia_bpt4 asiA

Row | Variant | effect of a mutation on the interaction
1 | R600H | decreasing interaction

Variants of: B2
Details: with rsd_ecoli rsd

Row | Variant | effect of a mutation on the interaction
2 | R600H | decreasing interaction

Variants of: B3
Details: with algq_pseae algQ

Row | Variant | effect of a mutation on the interaction
3 | R600H | decreasing interaction
